Assay results taken from patent US20210221908A1 (LAMKAP BIO BETA, published 2021).

T1: human CEACAM5 on MKN-45 cells (human, UniProt P06731 35-685)
T1 construct: endogenous CEA of MKN-45 gastric adenocarcinoma cells, which also carry CD47 and CEACAM6; UniProtKB P06731; also called CD66e
T1 sequence: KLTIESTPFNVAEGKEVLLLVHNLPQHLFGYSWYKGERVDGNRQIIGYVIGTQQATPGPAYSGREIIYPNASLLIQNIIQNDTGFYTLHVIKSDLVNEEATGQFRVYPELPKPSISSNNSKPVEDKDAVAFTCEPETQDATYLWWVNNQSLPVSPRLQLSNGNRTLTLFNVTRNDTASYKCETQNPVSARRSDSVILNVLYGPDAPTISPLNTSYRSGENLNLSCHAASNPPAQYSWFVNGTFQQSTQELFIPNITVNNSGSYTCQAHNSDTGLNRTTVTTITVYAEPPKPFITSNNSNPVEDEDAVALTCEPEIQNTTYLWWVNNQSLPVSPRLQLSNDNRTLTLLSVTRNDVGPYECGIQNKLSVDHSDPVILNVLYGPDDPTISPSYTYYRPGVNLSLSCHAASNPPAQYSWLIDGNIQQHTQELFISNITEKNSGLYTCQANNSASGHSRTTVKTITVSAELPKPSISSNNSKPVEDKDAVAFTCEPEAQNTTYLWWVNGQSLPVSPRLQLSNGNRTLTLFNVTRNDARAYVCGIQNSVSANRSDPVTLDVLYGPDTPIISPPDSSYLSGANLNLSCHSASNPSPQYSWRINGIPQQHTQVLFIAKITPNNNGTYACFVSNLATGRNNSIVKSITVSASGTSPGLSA

T2: commercial shed CEA (BioRad) (human, UniProt P06731 35-685, limits assumed)
T2 sequence: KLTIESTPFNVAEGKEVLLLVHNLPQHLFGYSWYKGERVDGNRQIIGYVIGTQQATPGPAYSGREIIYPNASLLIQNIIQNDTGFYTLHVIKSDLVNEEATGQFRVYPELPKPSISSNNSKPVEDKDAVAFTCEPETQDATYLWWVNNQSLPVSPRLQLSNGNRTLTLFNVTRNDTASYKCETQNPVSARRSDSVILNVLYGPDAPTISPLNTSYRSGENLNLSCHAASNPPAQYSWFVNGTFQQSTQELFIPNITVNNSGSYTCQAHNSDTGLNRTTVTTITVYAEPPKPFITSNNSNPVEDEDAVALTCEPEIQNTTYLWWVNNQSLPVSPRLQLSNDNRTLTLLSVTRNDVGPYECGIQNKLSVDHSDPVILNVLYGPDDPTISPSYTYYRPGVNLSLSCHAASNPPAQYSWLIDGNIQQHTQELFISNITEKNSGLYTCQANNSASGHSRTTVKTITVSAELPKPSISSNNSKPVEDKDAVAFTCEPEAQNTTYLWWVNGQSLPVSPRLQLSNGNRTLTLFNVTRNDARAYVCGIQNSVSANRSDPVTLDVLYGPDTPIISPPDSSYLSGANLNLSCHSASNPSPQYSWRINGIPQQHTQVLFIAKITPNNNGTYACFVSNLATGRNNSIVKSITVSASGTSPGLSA

T3: human CEACAM6 on MKN-45 cells (human, UniProt P40199 35-320)
T3 construct: whole, on cells
T3 sequence (looked up): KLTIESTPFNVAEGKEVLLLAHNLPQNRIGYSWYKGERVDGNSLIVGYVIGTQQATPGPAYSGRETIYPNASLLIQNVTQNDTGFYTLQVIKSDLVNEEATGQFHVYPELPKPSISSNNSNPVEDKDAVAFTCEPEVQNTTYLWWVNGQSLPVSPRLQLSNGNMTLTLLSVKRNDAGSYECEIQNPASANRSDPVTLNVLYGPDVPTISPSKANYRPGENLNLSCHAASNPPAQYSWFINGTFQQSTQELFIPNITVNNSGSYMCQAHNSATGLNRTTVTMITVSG


What was measured:
[1] = target: T4, human CD47 on MKN45 cells (human, UniProt Q08722 19-323); assay: inhibition of SIRPα-mouseFc binding to CD47 on MKN45 cells, imaging (CX5); column 'SIRPα inhibition potency'
T4 construct: whole, on cells; also called IAP
Source text: Experimental set-up for the measurement of the SIRPα inhibition potency data shown for bispecific antibodies of this invention (results see table 2):
The detection of bound SIRPα cell-based assay monitoring the interaction of soluble SIRPα with human CD47 expressed at the surface of MKN45 is used for the detection of the blocking activity. Dose-response experiments with bispecific antibodies according to the invention allow determination of an IC50 value.
MKN45 cancer cells, expressing both CD47 and CEACAM5, are stained with CFSE violet to allow the imaging system (CX5) to detect the cells. Briefly, 3,000 stained MKN45 cells per well are seeded in a 384 optical well plate (Costar) and incubated for 50 minutes with increased concentrations of bispecific antibodies of the invention (1.9 pM to 333 nM, in quadruplicates). Then, a fixe concentration of SIRPα—mouseFc premixed with anti-mouse IgG-Fc AF647 coupled antibody (Jackson Immunoresearch diluted 1:2000) is added at 50 ng/mL final. After an incubation of 3H30 plates are acquired with the imaging system (CX5, Thermofisher) and fluorescence signals emitted by the detected bound SIRPα is recorded by the software dedicated to the imaging system. Fluorescence signals are plotted according to the dose range tested and IC50 are calculated by the software (Prism, Graphpad).

[2] = target: T1, human CEACAM5 on MKN-45 cells; assay: flow cytometry on MKN45 CEA+ cancer cells (also carry CD47)
Method: (§1) Cells are harvested, counted, checked for viability and resuspended at 3×10⁶ cells/ml in FACS buffer (PBS 2% BSA, 0.1% NaN3). 100 μl of the cell suspension are distributed in V-bottom 96-well plates (3×10⁵ cells/well). The supernatant is removed by centrifugation 3 minutes at 4° C., 1300 rpm. Increasing concentrations of the antibody according to the invention are then added into the wells and incubated for 15 minutes at 4° C. Cells are washed twice with cold FACS buffer and re-incubated for further 15 minutes at 4° C. with the PE (R-phycoerythrin)-conjugated mouse anti-human IgG Fc secondary antibody (SouthernBiotech, pre-diluted 1:100 in FACS buffer). Cells are washed twice with cold FACS buffer and resuspended in 300 μl FACS buffer with 1:15000-diluted SytoxBlue (Life Technologies). Fluorescence is measured using a Cytoflex […]. Binding curves and EC50 values are obtained and calculated using GraphPad Prism? software. In the same manner binding of MAB CEA or MAB CEA1 to MKN-45 cells can be tested.

[3] = target: T2, commercial shed CEA (BioRad); assay: cell-based or functional assay
[4] = target: T1, human CEACAM5 on MKN-45 cells; assay: flow cytometry on MKN45 CEA+ cancer cells (also carry CD47); MKN45 CEA+ cancer cells
Method: as §1

[5] = target: T1, human CEACAM5 on MKN-45 cells; assay: flow cytometry (FACS) on MKN-45 cells, without shed CEA
[6] = target: T3, human CEACAM6 on MKN-45 cells; assay: statement in the legend of FIG. 21A (FACS on MKN-45 cells)
Method: Binding to target cells (MKN-45) expressing CD47, CEACAM5 and CEACAM6 was assessed by FACS.
as §1

[7] = target: T1, human CEACAM5 on MKN-45 cells; assay: flow cytometry (FACS) on MKN-45 cells, which express CD47, CEACAM5 and CEACAM6

IC50 [1] | EC50 [2] | shift of EC50 of the phagocytosis index curve of MKN-45 cells by 200 ng/mL shed CEA (FIG. 20B) [3] | EC50 [4] | EC50 (read off the curve) [5] | binding result [6] | EC50 (read off the curve) [7] | Binder
4 nM | 190 nM | – | – | – | – | – | K2AC13 CEAxCD47 bispecific antibody (bispecific antibody, human IgG1, kappa, lambda, kappa-lambda body, human IgG1, common heavy chain; CEA arm light chain 2B8 (AC13)) heavy: not shown light 1: not shown light 2: QSALTQPASVSGSPGQSITISCTGTSSNVRYAAGVSWYQQHPGKAPKLMIYEVSNRPSGVSNRFSGSKSGNTASLTISGLQAEDEADYYCSSWDFEHGPAAKVFGGGTKLTVLGQPKAAPSVTLFPPSSEELQANKATLVCLISDFYPGAVTVAWKADSSPVKAGVETTTPSKQSNNKYAASSYLSLTPEQWKSHRSYSCQVTHEGSTVEKTVAPTECS
0.86 nM | 12.5 nM | – | – | – | – | – | K2AC27 CEAxCD47 bispecific antibody (bispecific antibody, human IgG1, kappa, lambda, kappa-lambda body, human IgG1, common heavy chain; CEA arm light chain 2C11 (AC27)) heavy: not shown light 1: not shown light 2: QSVLTQPPSVSGAPGQRVTISCTGSSSNIGYADKVHWYQQLPGTAPKLLIYNNSDRPSGVPDRFSGSKSGTSASLAITGLQAEDEADYYCQSYDGYNMLTAVFGGGTKLTVLGQPKAAPSVTLFPPSSEELQANKATLVCLISDFYPGAVTVAWKADSSPVKAGVETTTPSKQSNNKYAASSYLSLTPEQWKSHRSYSCQVTHEGSTVEKTVAPTECS
0.95 nM | 52.5 nM | – | – | – | – | – | K2AC28 CEAxCD47 bispecific antibody (bispecific antibody, human IgG1, kappa, lambda, kappa-lambda body, human IgG1, common heavy chain; CEA arm light chain C11 (AC28)) heavy: not shown light 1: not shown light 2: NFMLTQPHSVSESPGKTVTISCTRSSGSINDITVHWYQQRPGSSPTTVIYGYNARPSGVPDRFSGSIDSSSNSASLTISGLKTEDEADYYCQSWDGHGSAYVFGGGTKLTVLGQPKAAPSVTLFPPSSEELQANKATLVCLISDFYPGAVTVAWKADSSPVKAGVETTTPSKQSNNKYAASSYLSLTPEQWKSHRSYSCQVTHEGSTVEKTVAPTECS
0.22 nM | 13 nM | – | – | – | – | – | K2AC25 CEAxCD47 bispecific antibody (bispecific antibody, human IgG1, kappa, lambda, kappa-lambda body, human IgG1, common heavy chain; CEA arm light chain 2F4 (AC25)) heavy: not shown light 1: not shown light 2: QSVLTQPPSVSAAPGQKVTISCSGSSSNIGITPVSWYQQLPGTAPKLLIYSNNFRPSGIPDRFSGSKSGTSATLGITGLQTGDEADYYCGTWDRTGHEIRPVFGGGTKLTVLGQPKAAPSVTLFPPSSEELQANKATLVCLISDFYPGAVTVAWKADSSPVKAGVETTTPSKQSNNKYAASSYLSLTPEQWKSHRSYSCQVTHEGSTVEKTVAPTECS
0.4 nM | – | < 4 fold | 11.3 nM | ~0.3 µg/mL | – | – | K2AC5 CEAxCD47 bispecific antibody (bispecific antibody, human IgG1, kappa, lambda, kappa-lambda body, human IgG1, common heavy chain; CD47 arm light chain KA3 (K2), CEA arm light chain 1D9 (AC5)) heavy: not shown light 1: not shown light 2: QSVLTQPPSVSAAPGQKVTISCSGSSSNIGYGLVSWYQQLPGTAPKLLIYAGNLRPSGIPDRFSGSKSGTSATLGITGLQTGDEADYYCGTWDFNYGVVFGGGTKLTVLGQPKAAPSVTLFPPSSEELQANKATLVCLISDFYPGAVTVAWKADSSPVKAGVETTTPSKQSNNKYAASSYLSLTPEQWKSHRSYSCQVTHEGSTVEKTVAPTECS
0.37 nM | 16.5 nM | < 4 fold | – | – | no binding | ~1 µg/mL | K2AC22 CEAxCD47 bispecific antibody (bispecific antibody, human IgG1, kappa, lambda, kappa-lambda body, human IgG1, common heavy chain; CEA arm light chain 1G6 (AC22)) heavy: not shown light 1: not shown light 2: QSVLTQPPSVSAAPGQKVTISCSGSSSNIANGIVSWYQQLPGTAPKLLIYFDNLRPSGIPDRFSGSKSGTSATLGITGLQTGDEADYYCGTWDFSYGIVFGGGTKLTVLGQPKAAPSVTLFPPSSEELQANKATLVCLISDFYPGAVTVAWKADSSPVKAGVETTTPSKQSNNKYAASSYLSLTPEQWKSHRSYSCQVTHEGSTVEKTVAPTECS
